Experimental data as given in patent publication US12485182B2, “Proteoglycan mimetics for enhanced wound healing, angiogenesis, and vascular repair” (The Regents of the University of California, priority 2018, dated 2025).
Non-standard residues stand in square brackets, D forms with d. No end group written: not given here. AEEA = NCCOCCOCC(=O)O

Tests used:
collagen I = biological target: T1, collagen I (Rattus norvegicus, UniProt P02454+P02466); assay: Surface binding of biotinylated molecules to collagen I (streptavidin-HRP); conditions: for collagen I binding after incubation (deterioration of binding activity over time): after 2 weeks in 1% BSA at room temperature
T1 construct: rat tail collagen I (Corning); purchased Corning; host or cells: rat tail (tissue-extracted)
Experimental: (§1) High-binding 96-well plates (Corning) were coated with 50 μg/mL rat tail collagen I (Corning) at 4° C. overnight or 2% reduced growth factor Matrigel (Corning #354230) in basal EBM media for 30 minutes at 37° C. and rinsed 3× with PBS before blocking non-specific binding with 1% Bovine Serum Albumin (BSA) for 1 hour at room temperature. For fibrinogen surfaces, a fibrinogen coating solution of ˜2.75 mg/mL fibrinogen (Sigma) and 5.5 μg/mL aprotinin (Sigma) was incubated at 4° C. overnight in high-binding plates. Biotinylated samples dissolved in 1% BSA were allowed to bind to the surface for 30 minutes at 37° C. on a plate shaker. After 3 washes with PBS, wells were incubated with 1:200 streptavidin-HRP in 1% BSA, rinsed 3× with PBS, developed with a 1:1 A to B color solution for 20 minutes, stopped with the addition 2N H2SO4, and read on a Spectramax M5 platereader for absorbance at 450 nm with 540 nm correction.
(§2) The ability of DS-SILY4 to bind to various protein surface coatings was investigated using streptavidin-HRP detection of bound biotinylated DS-SILY4 molecules. Here we studied collagen and fibrinogen binding properties of the proteoglycan mimics since this proposed therapy is designed to target angiogenic activity to the wound site by tethering to extracellular matrix. Using standard surface coating procedures for collagen (50 μg/mL) and matrigel (2%), ˜7.5 μg/cm^2 rat tail collagen I and ˜28 μg/cm^2 matrigel were allowed to bind to a high bind plate.

[1] = system: matrigel (collagen IV/laminin); assay: Surface binding of biotinylated molecules to matrigel (streptavidin-HRP); conditions: for matrigel binding after incubation (deterioration of binding activity over time): after 2 weeks in 1% BSA at room temperature; for matrigel binding affinity (relative): comparison between molecules
Experimental: as §1, §2

fibrinogen = biological target: T2, fibrinogen (Homo sapiens, UniProt P02671+P02675+P02679); assay: Surface binding of biotinylated molecules to fibrinogen (streptavidin-HRP); conditions: biotinylated molecule, absorbance
T2 construct: purchased Sigma
T2 sequence (P02671 20-629 limits assumed): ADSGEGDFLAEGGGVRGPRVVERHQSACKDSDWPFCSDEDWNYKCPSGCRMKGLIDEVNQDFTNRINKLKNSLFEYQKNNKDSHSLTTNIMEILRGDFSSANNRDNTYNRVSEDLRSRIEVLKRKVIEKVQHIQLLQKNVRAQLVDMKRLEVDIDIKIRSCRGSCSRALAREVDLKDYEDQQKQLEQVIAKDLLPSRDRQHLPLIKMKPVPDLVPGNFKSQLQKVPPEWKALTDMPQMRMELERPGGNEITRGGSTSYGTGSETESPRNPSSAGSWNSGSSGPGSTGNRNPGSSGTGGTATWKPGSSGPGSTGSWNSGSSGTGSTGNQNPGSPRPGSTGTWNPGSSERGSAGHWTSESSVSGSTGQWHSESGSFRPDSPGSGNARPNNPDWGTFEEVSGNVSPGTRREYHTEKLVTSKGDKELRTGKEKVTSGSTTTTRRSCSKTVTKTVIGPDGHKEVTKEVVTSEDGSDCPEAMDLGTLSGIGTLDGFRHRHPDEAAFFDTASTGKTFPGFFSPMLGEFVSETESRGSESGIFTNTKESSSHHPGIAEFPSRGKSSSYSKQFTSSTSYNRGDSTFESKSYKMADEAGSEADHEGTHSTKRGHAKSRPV
T2 sequence (P02675 31-491): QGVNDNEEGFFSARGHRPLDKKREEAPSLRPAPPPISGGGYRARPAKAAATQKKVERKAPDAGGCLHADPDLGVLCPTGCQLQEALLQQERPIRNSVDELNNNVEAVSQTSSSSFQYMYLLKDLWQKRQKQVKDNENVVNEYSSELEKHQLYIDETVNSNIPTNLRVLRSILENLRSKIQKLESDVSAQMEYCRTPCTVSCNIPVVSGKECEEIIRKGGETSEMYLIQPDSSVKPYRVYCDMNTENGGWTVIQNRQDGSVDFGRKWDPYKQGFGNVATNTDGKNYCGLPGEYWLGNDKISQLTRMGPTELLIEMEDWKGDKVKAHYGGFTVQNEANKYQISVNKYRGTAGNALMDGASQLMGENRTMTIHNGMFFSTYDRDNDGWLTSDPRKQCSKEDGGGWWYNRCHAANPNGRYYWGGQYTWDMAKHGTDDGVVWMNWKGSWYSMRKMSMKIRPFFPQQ
T2 sequence (P02679 27-433 limits assumed): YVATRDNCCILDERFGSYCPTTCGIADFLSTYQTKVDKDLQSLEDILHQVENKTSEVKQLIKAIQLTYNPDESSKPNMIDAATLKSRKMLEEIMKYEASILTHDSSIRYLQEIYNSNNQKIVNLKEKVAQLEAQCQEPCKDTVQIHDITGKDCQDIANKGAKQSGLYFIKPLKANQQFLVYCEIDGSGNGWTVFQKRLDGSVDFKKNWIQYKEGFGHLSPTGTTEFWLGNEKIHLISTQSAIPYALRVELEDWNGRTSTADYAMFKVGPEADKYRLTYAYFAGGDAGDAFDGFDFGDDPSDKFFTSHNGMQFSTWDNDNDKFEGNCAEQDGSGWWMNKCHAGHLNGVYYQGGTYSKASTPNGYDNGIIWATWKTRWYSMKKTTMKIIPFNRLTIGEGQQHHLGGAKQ
Experimental: as §1
as §2, with “Using standard surface coating procedures for collagen (50 μg/mL) and matrigel (2%), ˜7.5 μg/cm^2 rat tail collagen I and ˜28 μg/cm^2 matrigel were allowed to bind to a high bind plate.” left out

HMVEC [2] = assay: HMVEC attachment to surface-bound molecules (alamarBlue); type: cell-based, human; conditions: low cell densities, both 1 μM and 10 μM surface treatments
Experimental: (§3) 50 μL, treatments dissolved in 1% BSA in PBS were added to a Biocoat Collagen I 96-well plate (Corning) and incubated for 30 minutes at 37° C. before washing 3 times with PBS to remove unbound treatment. […] To evaluate initial attachment, media was aspirated 5-8 hours after seeding and exchanged with alamarBlue® cell viability reagent (1:10, 110 μL/well, Molecular Probes) and incubated for 2.5 hours at 37° C. according to the manufacturers' protocol. 100 μL from each well was pipetted into a new plate and assayed for fluorescence at 560 nm excitation and 590 nm emission. Remaining reagent was aspirated and replaced with fresh media and the alamarBlue® viability assay was performed every 2 days thereafter for 1 week. To control for initial differences in HMVEC attachment, proliferation data is presented as the alamarBlue® fluorescence signal normalized to the signal at 8 hours.

HMVEC [3] = assay: HMVEC proliferation in response to surface-bound molecules (alamarBlue); type: cell-based, human
Experimental: as §3
Both soluble and bound forms of molecules would be present in a dynamic equilibrium in this initial experimental design and the two forms may produce differing effects, and thus we sought to investigate the effects of bound molecules alone. Furthermore, the bioactivity of a collagen-bound form would more directly reflect the application of a targeted pro-angiogenic therapy in a chronic wound. […]

[4] = system: chick chorioallantoic membrane; assay: Ex ovo CAM assay, vascular invasion into collagen gels; type: in vivo; conditions: both 10 μM and 20 μM embedded gels, vs blank controls
Experimental: For experiments studying vascular invasion into collagen gels, 30 μL collagen I gels with an embedded 3 mm×3 mm nylon mesh (Fisher) were used. 4-5 gels were placed on each CAM, with 2-3 treatment gels of the same type and 2 blank gels as internal controls to correct for embryo variability. In some embryos, the nylon meshes were dyed to improve visualization of the mesh and vessels growing into the gel. Large (4 cm×10 cm) nylon meshes were dyed by reacting in 226 mL of a 77 mM acetic acid (Sigma) solution with 10 drops of green food coloring (McCormick) or 250 μL of 3 mg/mL Evans blue (Alfa Aesar) at 121° C. for 15 minutes in an autoclave, and then cut to 3 mm×3 mm squares for embedding. Gels were imaged daily through a Dino-Eye AM7025X camera installed on a stereomicroscope; for images more than 2 days after gel implantation, 0.25 mL PBS was pipetted on top of gels to help visualize vessels. […]
In an attempt to better visualize new vasculature invading the implanted collagen gels, we injected ˜100 μL 1 mg/mL high molecular weight fluorescent dextran (70 kDa RITC-dextran) into the CAM vessels 7 days after transplantation, cut out integrated collagen gels and surrounding membrane, and imaged with fluorescence microscopy. […]

THP-1 monocytes = assay: Attachment of THP-1 monocytes to peptide-treated surfaces; type: cell-based; conditions: biotin-peptide on Avidin-coated wells
Text: (§4) FIG. 33. Attachment of cells and platelets to LXW7 and GRGD (SEQ ID NO: 2) treated surfaces. (A) Images of attached HCAECs (left panels), THP-1 monocytes (middle panels) and platelets (right panels) on surfaces treated by D-Biotin (a-c) (control), LXW7 (d-f) or GRGD (SEQ ID NO: 2) (g-i). Scale bars in a, b, d, e, g and h are 50 μm. Scale bars in c, f and i are 20 μm. (B) The number of cells or platelets attached on different treated surfaces were quantified and statistical analyses were performed. Data were expressed as mean±standard deviation: **p<0.01 (n=4).
(§5) Using primary artery-derived ECs and blood-derived EPCs as living probes to screen One-Bead-One-Compound (OBOC) combinatorial peptide libraries, several high-affinity binding ligands against the αvβ3 integrin on the surface of EPCs/ECs were identified. […] The LXW7 peptide, when grafted to surfaces, supports adhesion and spreading of EPCs and human coronary ECs, but not platelets or monocytes. […] After washing with PBS and blocking with 1% BSA wells were ready for cell attachment with 5×10^4 HCAECs or THP-1 monocytes suspended in the respective maintenance medium, or freshly isolated platelets at a density of 5×10^7 platelets/cm^2 incubated for 16 h at 37° C., 5% CO2. […] Quantification of images was performed using the Image J software (NIH).

platelets = assay: Attachment of platelets to peptide-treated surfaces; type: cell-based; conditions: biotin-peptide on Avidin-coated wells
Text: as §4, §5

T1 sequence (P02454 152-1207 limits assumed): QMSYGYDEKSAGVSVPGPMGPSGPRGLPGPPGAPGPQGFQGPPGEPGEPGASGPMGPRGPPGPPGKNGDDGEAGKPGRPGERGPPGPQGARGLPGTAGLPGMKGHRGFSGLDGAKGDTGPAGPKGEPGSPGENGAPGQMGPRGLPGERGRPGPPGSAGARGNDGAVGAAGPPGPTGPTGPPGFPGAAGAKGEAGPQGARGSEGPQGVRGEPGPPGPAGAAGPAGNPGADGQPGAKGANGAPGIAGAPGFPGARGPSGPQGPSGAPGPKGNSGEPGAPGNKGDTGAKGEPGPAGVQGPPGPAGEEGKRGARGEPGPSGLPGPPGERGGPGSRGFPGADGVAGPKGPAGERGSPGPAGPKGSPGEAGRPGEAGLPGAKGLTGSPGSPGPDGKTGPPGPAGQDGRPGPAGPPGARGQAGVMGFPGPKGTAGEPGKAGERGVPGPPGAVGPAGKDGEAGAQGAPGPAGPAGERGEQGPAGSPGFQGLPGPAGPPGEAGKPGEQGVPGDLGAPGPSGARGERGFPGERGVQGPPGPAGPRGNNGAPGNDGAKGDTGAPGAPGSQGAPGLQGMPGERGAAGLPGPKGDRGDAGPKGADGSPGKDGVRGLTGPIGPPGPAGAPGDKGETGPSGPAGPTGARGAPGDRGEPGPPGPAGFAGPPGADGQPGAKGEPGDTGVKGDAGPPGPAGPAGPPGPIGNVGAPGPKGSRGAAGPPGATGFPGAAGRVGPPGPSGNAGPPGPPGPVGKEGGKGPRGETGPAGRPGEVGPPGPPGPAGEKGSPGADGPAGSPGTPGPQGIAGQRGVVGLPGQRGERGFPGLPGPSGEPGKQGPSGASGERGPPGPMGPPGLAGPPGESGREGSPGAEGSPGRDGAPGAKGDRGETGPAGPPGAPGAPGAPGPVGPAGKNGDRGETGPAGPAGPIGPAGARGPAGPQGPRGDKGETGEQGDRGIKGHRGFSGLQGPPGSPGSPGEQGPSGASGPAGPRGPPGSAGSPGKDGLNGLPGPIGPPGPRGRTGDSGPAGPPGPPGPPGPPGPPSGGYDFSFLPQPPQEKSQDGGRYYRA
T1 sequence (P02466 86-1125 limits assumed): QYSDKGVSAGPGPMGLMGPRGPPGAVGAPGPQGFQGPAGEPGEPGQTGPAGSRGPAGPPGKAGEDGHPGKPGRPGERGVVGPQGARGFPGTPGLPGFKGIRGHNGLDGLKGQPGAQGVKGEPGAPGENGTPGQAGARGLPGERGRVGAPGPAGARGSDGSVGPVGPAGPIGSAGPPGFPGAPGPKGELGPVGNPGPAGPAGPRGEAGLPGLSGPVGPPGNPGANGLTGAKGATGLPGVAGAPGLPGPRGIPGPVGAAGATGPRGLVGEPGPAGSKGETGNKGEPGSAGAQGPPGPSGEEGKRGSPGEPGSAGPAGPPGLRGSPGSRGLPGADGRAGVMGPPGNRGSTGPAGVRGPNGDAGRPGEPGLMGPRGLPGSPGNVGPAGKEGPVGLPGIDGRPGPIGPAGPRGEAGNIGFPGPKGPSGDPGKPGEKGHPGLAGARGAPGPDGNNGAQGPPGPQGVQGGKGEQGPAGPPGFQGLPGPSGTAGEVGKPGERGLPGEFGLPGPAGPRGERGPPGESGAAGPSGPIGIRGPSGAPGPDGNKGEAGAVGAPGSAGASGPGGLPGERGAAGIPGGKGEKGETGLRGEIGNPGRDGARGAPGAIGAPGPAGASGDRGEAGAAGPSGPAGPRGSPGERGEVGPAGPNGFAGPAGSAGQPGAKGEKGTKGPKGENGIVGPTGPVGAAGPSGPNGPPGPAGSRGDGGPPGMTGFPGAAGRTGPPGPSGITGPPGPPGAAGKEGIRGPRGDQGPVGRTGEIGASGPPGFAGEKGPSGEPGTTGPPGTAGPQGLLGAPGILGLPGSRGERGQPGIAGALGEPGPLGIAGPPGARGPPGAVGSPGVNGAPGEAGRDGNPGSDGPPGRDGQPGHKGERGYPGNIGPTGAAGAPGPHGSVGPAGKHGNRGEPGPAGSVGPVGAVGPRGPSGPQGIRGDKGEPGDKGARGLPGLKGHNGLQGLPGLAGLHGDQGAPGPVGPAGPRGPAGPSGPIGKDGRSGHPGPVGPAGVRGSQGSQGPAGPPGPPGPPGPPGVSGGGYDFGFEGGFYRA

(peg2V)2-DS-SILY4: pro-angiogenic decorin mimic, 2 peg2V and 4 SILY per DS (peptide 1 KLTWQELYQLKYKGI[AEEA][AEEA]GSG; peptide 2 RRANAALKAGELYKSILYGSG; also: conjugated to dermatan sulfate: 2 peg2V and 4 SILY per DS, attachment not given here)
collagen I binding after incubation (deterioration of binding activity over time) (collagen I): higher concentrations are needed to achieve the same binding
collagen I affinity (relative) (collagen I; comparison between molecules): highest collagen I and matrigel affinities
matrigel binding after incubation (deterioration of binding activity over time) [1]: higher concentrations are needed to achieve the same binding
matrigel binding affinity (relative) [1]: highest collagen I and matrigel affinities

DS-(peg2V)2: dermatan sulfate with 2 peg2V peptides per DS (KLTWQELYQLKYKGI[AEEA][AEEA]GSG; also: conjugated to dermatan sulfate, 2 peg2V per DS, attachment not given here)
collagen I affinity (relative) (collagen I; comparison between molecules): higher affinity for collagen I than DS-SILY4
collagen I binding capacity (relative) (collagen I; comparison between molecules): highest collagen I binding capacity of all the molecules studied
matrigel binding affinity (relative) [1]: similar

DS-SILY4: decorin mimic composed of a dermatan sulfate backbone and 4 SILY substitutions per DS (RRANAALKAGELYKSILYGSG; also: conjugated to dermatan sulfate, 4 SILY per DS, attachment not given here)
collagen I binding after incubation (deterioration of binding activity over time) (collagen I): this shift was also observed
binding capacity to collagen I (collagen I; biotinylated molecule, absorbance): 1.6 AU
matrigel binding after incubation (deterioration of binding activity over time) [1]: increased matrigel binding capacity after the 2 week incubation
binding capacity to collagen IV/laminin ([1]; biotinylated molecule, matrigel coating, absorbance): 1.1 AU
binding capacity to fibrinogen (fibrinogen): 0.30 AU
decrease in HMVEC attachment compared to a BSA blocked collagen surface (HMVEC [2]): 7%
endothelial proliferation vs untreated collagen (HMVEC [3]; 1 μM surface treatment): only statistically significant over no treatment when compared in media lacking VEGF
endothelial proliferation vs untreated collagen (HMVEC [3]; 10 μM surface treatment): significantly improved proliferation in media with and without VEGF
gel vascularity / vascularized gel area [4]: very slight increase in gel vascularity that was not statistically significant over the blank controls

GRGD [RGD peptide, reference compound]
monocyte binding to treated surface (THP-1 monocytes): generally supported monocyte and platelet binding
platelet binding to treated surface (platelets): generally supported monocyte and platelet binding
